Assay results from US20180162928A1 (Janssen / Centocor, published 2018).
Read-outs that look alike come from different tables or passages of the source.

What was measured:
Experiment in all cases: ELISA, lysate on plate-bound antigen
[1] = biological target: unrelated Fc-fused recombinant protein
[2] = biological target: T1, recombinant biotinylated PD-L1 (rhPD-L1/Fc Chimera, R&D Systems 156-B7) (human, UniProt Q9NZQ7 19-238, biotinylated (sites not given))
T1 construct: Bought Fc chimera; also called human PD-L1
How it was run: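 On streptavidin plates coated with biotinylated PD-L1 (unrelated Fc-fusion protein and HSA as negative controls), diluted lysate was applied for 1 h. Bound FN3 domains detected with HRP-conjugated anti-FN3 antibody and POD substrate.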

[3] = biological target: human serum albumin (human) (UniProt P02768)
[4] = biological target: unrelated Fc-fused recombinant protein; remark: listed apart in the source

Sequence of human serum albumin (human) (P02768 25-609 limits assumed): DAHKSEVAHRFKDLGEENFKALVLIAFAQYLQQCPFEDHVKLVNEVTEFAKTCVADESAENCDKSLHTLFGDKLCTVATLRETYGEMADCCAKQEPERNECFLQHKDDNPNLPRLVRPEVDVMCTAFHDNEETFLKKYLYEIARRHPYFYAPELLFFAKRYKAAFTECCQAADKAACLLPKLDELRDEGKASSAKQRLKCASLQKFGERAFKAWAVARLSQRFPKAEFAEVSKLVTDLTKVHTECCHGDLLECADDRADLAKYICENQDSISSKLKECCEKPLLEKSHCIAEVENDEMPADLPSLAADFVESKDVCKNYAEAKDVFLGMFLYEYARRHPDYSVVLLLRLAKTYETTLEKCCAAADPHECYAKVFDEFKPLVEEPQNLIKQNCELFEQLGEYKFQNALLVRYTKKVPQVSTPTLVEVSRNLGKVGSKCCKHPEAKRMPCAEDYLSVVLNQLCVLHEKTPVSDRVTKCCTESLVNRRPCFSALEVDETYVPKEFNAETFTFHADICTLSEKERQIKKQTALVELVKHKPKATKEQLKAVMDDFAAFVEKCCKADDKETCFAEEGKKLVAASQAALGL
T1 sequence (Q9NZQ7 19-238, change not shown): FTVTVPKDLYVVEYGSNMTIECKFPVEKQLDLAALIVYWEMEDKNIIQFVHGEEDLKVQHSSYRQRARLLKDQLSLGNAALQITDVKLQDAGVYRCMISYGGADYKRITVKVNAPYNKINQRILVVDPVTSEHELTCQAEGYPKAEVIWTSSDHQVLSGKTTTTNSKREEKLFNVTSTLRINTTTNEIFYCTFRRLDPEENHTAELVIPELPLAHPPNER

ELISA Fc Control (RSU) [1] | ELISA PD-L1 Fc (RSU) [2] | ELISA HSA (RSU) [3] | ELISA Fc Control (RSU) [4] | Binder
4400 RSU | 5.21e+06 RSU |  |  | ISOP194AR9P1H10 (designed binder, not shown: small tags and cut ends, FN3 domain; E. coli lysate in the ELISA) LPAPKNLVISRVTEDSARLSWPAHYHSAFFDSFLIQYQESEKVGEAIVLTVPGSERSYDLTGLKPGTEYTVSIYGVYQRKVEFHSNPLSAIFTT
 | 240000 RSU | 1040 RSU | 960 RSU | ISOP121GR5P1G11 (designed binder, not shown: small tags and cut ends, FN3 domain; E. coli lysate in the ELISA) LPAPKNLVVSRVTEDSARLSWTAPDAAFDSFQINYHEYGQNGEAIQLIVPGSERSYDLTGLKPGTEYGVWIWGVKGGIRSKPLWAFFTT
 | 177000 RSU | 480 RSU | 640 RSU | ISOP121BR5P1C3 (designed binder, not shown: small tags and cut ends, FN3 domain; E. coli lysate in the ELISA) LPAPKNLVVSRVTEDSARLSWASARDYFDSFLIQYQESEKVGEAIVLTVPGSERSYDLTGLKPGTEYTVSIYGVLAIAQITHWFSNPLSAIFTT
 | 251000 RSU | 560 RSU | 480 RSU | ISOP121ER5P1E7 (designed binder, not shown: small tags and cut ends, FN3 domain; E. coli lysate in the ELISA) LPAPKNLVVSRVTEDSARLSWTAPDAAFDSFTIGYTETPPRGEAIVLTVPGSERSYDLTGLKPGTKYYVSILGVKGGLGSWPLSAIFTT
 | 186000 RSU | 960 RSU | 1040 RSU | ISOP121BR5P1D1 (designed binder, not shown: small tags and cut ends, FN3 domain; E. coli lysate in the ELISA) LPAPKNLVVSRVTEDSARLSWKWGGEFFDSFLIQYQESEKVGEAIVLTVPGSERSYDLTGLKPGTEYTVSIYGVYQRNWHHWYSNPLSAIFTT
2320 RSU | 1.9e+07 RSU |  |  | ISOP194BR9P1A9 (designed binder, not shown: small tags and cut ends, FN3 domain; E. coli lysate in the ELISA) LPAPKNLVVSRVTEDSARLSWFNADEEYFDSFLIQYQESEKVGEAIVLTVPGSERSYDLTGLKPGTEYTVSIYGVYDRKVKFVQSNPLSAIFTT
 | 226000 RSU | 1040 RSU | 1120 RSU | ISOP121BR5P1C9 (designed binder, not shown: small tags and cut ends, FN3 domain; E. coli lysate in the ELISA) LPAPKNLVVSRVTEDSARLSWIWPDKHEFFDSFLIQYQESEKVGEAIVLTVPGSERSYDLTGLKPGTEYTVSIYGVYDRKYANWSSNPLSAIFTT
